# Experimental data as given in the supplement of paper PMC9170038.
# Test system: K4 kissing-loop RNA reporter
# Assay: apparent KD of K4 kissing-loop reporter; higher = weaker reporter binding
# Details: Eterna round: R107; input ligand: theophylline 20 uM
# Procedure: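 RNA-MaP round R107: designed RNA switches with theophylline, tryptophan, arginine or FMN aptamers are transcribed on-chip within common flanks. They are titrated with a labelled K4 kissing-loop RNA reporter in RNA-MaP buffer (100 mM Tris pH 7.5, 80 mM KCl, 4 mM MgCl2), without ligand or with the indicated ligand. Median apparent KD per design.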
# 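Further: bound reporter read as fluorescence of individual clusters on recovered sequencing chips by microscopy, with normalized cluster intensities fitted with a binding model.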
row,Sequence,apparent KD of K4 kissing-loop reporter [nM]
1,UUUUUGGAGAAUUAUAGUGAUGUUAUGAAGGAGGAUAUCUGGAGAUGGAGAAGGCCUAGUGGCUCAGCCCUCGAGGGUGGGUGGG [ExFMNA.aC],778
2,AGUGAUAUAUGAGGAUAUGGGUUAAUUAGUGAGUGAUUUUUAGUGUUGUUUGAUUAGUGAUGUUAUUUAGAAGGCGUGAGUGAUG [mvvmjmullin],144
3,CGCAGUGAUGUUGCGAACAUAAUGCAUUCAGAGGAUAUUCGUUUGGGAAGAAGGCUGAAUCGUUUUUCGAGUGAUGUUUGAGGAA [Same State FMN A GF 18],91
4,AUUUGUUUAUGCGAUACCAGACUAAGCAGUGAUGUUGCUUUUAUUUUUGAAUUUUAAAUAGUCCCUUGGCAGCGCUAUGUCUGUA [#06 K4 Theophylline B Same State],217
5,UAAGCUCUGACGGCCGCCACUGCACGUGAAUCAGUGGUGGCUAACAUGAGUGAUGUUCAUGUAAGCAGGACCGGGUCAGAGCUAA [KL-XTryp-B14 #analogue],93.6
6,CCAUCGCUAUUCGAUACCAGUCAGGAGGUCUGUGACCUCCUAAUGGAGUGAUGUUCCUUAGACCCUUGGCAGCGAAUAGUGAUGG [#02 K4 Theophylline B Same State],141
7,UCGAAGGAUGGAAGGAGCGCUCGUCAGCCCUGCGAGUGAUGUUCGUGGGUAAAUAGUCGCGAGCAGGUAGGUCGCCAUCUUGAGC [Ritera],111
8,UCUUAACUAAAAUAAUGGGAUACCAGUGAUACCAGCCAUAUGCAGGGCCCUUGGCAGCACCCUUGGCAGCCUCGAGUGAUGUUCG [KL-SSTheo-A7 #DoubleAptamer],247
9,GCCGUACGCAUGGAUACCAGAUCUAGACGCUUAGUGAUGUUAAGUAAUCUGGUUAGACCGAUCCCUUGGCAGCCAUGCGUACGGC,203
10,GCCGUACGCAUGGAUACCAGACAACCAUUCUAAAUUUUGUGUCCGGUAGUGAUGUUACCUGUCCCUUGGCAGCCAUGCGUACGGC,317
11,GAACGGCGGGCGGCCGCCACUGGUAUACGAGUGAUGUUCGGAUAUACGUGAUGUAAGGUAAUUAUCAGGACCGGGUCAGAGCCGG [#16 K4 Tryptophan B Same State],341
12,UGUCAUUGGUCGGCCGCCACUAGGACCGGGUAUAACCUAGUGAUGUUAGUAAAUACGGCCGCCACUAGGACCGGGACCGAUGACU [KL-SSTryp-B18 #DoubleAptamer],471
13,AAGUCAUAGGCAGGAUAUGCAUUGUAGUAAGGCAAUAUAUACGUAUAGAGUGAUGUUUUGUACCAGGCAGAAGGGCUACAUCAGU [FMN B Excl V11 (+G)],868
14,GCUAUGGUAGGAAGGAGCGCGGACGAAAUAUAUCGAGUGAUGUUCGAAUAAUUAAAUAAAACGCAGGUAGGUCGCCUACUAUAGC [Arginine B K4 25],120
15,AGACUACCACACUGUCAAUAGACAGUGGACUAGGAUAUGCUGAUAAGCAGAAGGAGUGAUGUUCCUAGGUAGUCAAUAAAAUAAU [FmnAX 13 G28],532
16,UUUCUACCGGGAAGGAGCGUGAAUGAUAAUGGAUAUAGUGAUGUUAUAUAUACGAACGAAUCGCAGGUAGGUCGCCCGGAUCACU [SSArgB.U],1480
17,GCCGUAGAUGGAAGGAGCGUGGUGGACUCGUGAAGUGAUGUUUCAAGUCGUUAUGCCCAACCACAGGUAGGUCGCCAUCUACGGC,231
18,UGCAGUGAUGUUGCUAUUUGUCUUGAUUAACGAGGACCGGUACGGCCGCCACUCGAUUUCUCUCUAAUCGAGUAUGUUGUUUAGU [#19 K4 Tryptophan A Exclusion],203
19,UAAUUGCAGUGAUGUUGCAAAUGUCCUGACUAGGAUAUCAGGAAACUGAGAAGGAGUCCCUUCUAUUGCAACAAGAAGGAGGAUA [KL-SSFMN-A14],338
20,AAUAUAAAGCAGUGAUGUUGCUUAUGAGAAGGAGCGCACGAAAGUGCAGGUAGGUCGCUCAGCCAAGUGGACGAAAACGUCCACA [whbob_SS_Arginine_A_sa106],85.3
21,GGAUCCACCAGUGAUGUUGGAGAAAACUCAAAGGAUAUGACGAAAGUCAGAAGGUUGUAGACUGGACAAAGUCCGGUCGGAUCCA [FmnA 19 A30+U56],613
22,UUGAGCCGGACGUAAGUCCGGCUCUGCGAGCGAGGACCGGUACGGCCGCCACUCGGUGCAGUGAUGUUGCAUGGCCGCAAGGCCG [#2 Exclusion - Tryptophan A Attempt #5 (HarryS)],394
23,UGCACGGGCUCGGCCGCCACUCCAGCGGGUCGCAAGGUCCGCUACUGAGUGAUGUUCGGUUGGAGGAGGACCGGGAGCCCGUGCG [#2 Exclusion - Tryptophan B Attempt #31 (HarryS)],139
24,AUCUUGUUUGGAGGAUAUUCUUUAUUUGACAUAACCUUCUAUAAGGUGCAGUGAUGUUGCAAUAUAGGAGAAGGUCGAGUGAGAU [Exclusion FMN B GF 18],202
25,AGGGUUUAACACGAUACCAGCCUGGAGGCCAGUGAUGUUGGCCGAUUUGAACAGAAUUAAGGCCCUUGGCAGCGUCUUUAAAACC [Biarat],165
26,GAGUUUCGUAAAGGAUAUUCUAGCUAAAGCCAUUAGUGAUGUUGAUGUACGGACGGAAGCCUGGCAGAAGAAGGUUAACAGGAUU [theeternabot_sameState_KL_FMN_B_24],420
27,AGUGAUGUGGGAAGGAGCGGUAUAAGAAUUCAGUGAUGUUGAAGUGUUGCAGAAAUAAAAGGCCAGGUAGGUCGCCUAGAUGUUA [KL-XARG B29],519
